{"source": "paper doi:10.1101/2023.07.13.548902v1", "proteins": {"B1": {"name": "AfCel7A (Aspergillus fumigatus Af293) (protein)", "chain": "QQVGTSQAEVHPSMTWQSCTAGGSCTTNNGKVVIDANWRWVHKVGDYTNCYTGNTWDTTICPDDATCASNCALEGANYESTYGVTASGNSLRLNFVTTSQQKNIGSRLYMMKDDSTYEMFKLLNQEFTFDVDVSNLPCGLNGALYFVAMDADGGMSKYPTNKAGAKYGTGYCDSQCPRDLKFINGQANVEGWQPSSNDANAGTGNHGSCCAEMDIWEANSISTAFTPHPCDTPGQVMCTGDACGGTYSSDRYGGTCDPDGCDFNSFRQGNKTFYGPGMTVDTKSKFTVVTQFITDDGTSSGTLKEIKRFYVQNGKVIPNSESTWTGVSGNSITTEYCTAQKSLFQDQNVFEKHGGLEGMGAALAQGMVLVMSLWDDHSANMLWLDSNYPTTASSTTPGVARGTCDISSGVPADVEANHPDAYVVYSNIKVGPIGSTFNSGGSNPGGGTTTTTTTQPTTTTTTAGNPGGTGVAQHYGQCGGIGWTGPTTCASPYTCQKLNDYYSQCL"}}, "substrate": "[H][C@@]1(O[C@H]2[C@H](O)[C@@H](O)[C@H](Oc3ccc([N+](=O)[O-])cc3)O[C@@H]2CO)O[C@H](CO)[C@H](O)[C@H](O)[C@H]1O", "assay": "p-nitrophenol release, Lineweaver-Burk", "format": "biochemical, Aspergillus fumigatus", "details": "50 °C, 30 min, 25 mM citrate pH 5.0"}
{"protein": "B1", "values": [{"measurement": "Km", "value": "128 ± 1", "unit": "µM"}, {"measurement": "kcat", "value": "0.08055 ± 0.00033", "unit": "s⁻¹"}]}
